Data on three molecules can be found in article PMC2821871 (Biochemistry, 2010).

In one test the target is T1, CR17 of LRP (human, UniProt Q07954 2770-2817).
T1 chain (looked up): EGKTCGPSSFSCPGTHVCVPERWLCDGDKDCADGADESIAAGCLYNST

The target in test [1] is CR16-18 of LRP (P. pastoris) (human, UniProt Q07954 2731-2857). Kind of test: SPR.

No end group written: not given here. *: point of attachment. Biotin = O=C1N[C@H]2[C@H](CS[C@H]2CCCCC(=O)*)N1 A value given as a limit tells only on which side of the number the result lay.

Sequence of CR16-18 of LRP (P. pastoris) (Q07954 2731-2857): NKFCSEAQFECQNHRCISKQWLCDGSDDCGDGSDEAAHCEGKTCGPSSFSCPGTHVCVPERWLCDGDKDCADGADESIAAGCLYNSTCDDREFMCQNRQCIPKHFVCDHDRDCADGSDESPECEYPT

B1: Ub-ApoE(130-140) (peptide, UniProt P02649 148-158, looked up)
chain: TEELRVRLASH
With B1, in the test with CR17 of LRP, the Kd (commonly the constant that tells how readily two partners part at equilibrium) was > 5 mM.

B2: biotinylated ApoE(141-155)^2 peptide (peptide, UniProt P02649 159-173, looked up)
peptide: Biotin-LRKLRKRLLRDADDLLRKLRKRLLRDADDL
Consider B2, for which, in test [1], the Kd was ~0.0002 mM.

B3: Ub-ApoE(130-149)(K143/146A) (peptide, UniProt P02649 148-167, looked up)
chain: TEELRVRLASHLRALRARLL
On to B3, for which, in the test with CR17 of LRP, the “KD (Global)” value was 3.84 ± 0.801 mM, the “KD (Largest)” value came to 2.76 ± 0.361 mM, the “KD (Sum)” value worked out at 3.78 ± 0.375 mM and the Kd amounted to 3.46 mM.
